The values that follow come from PMC3157250 (2011).

The target of data set [1] is KSHV protease (Kaposi's sarcoma-associated herpesvirus) (UniProt Q2HRB6). The note with it: cited from earlier work.
Data set [2] deals with the molecule itself. In words: fluorescence-based substrate cleavage kinetics assay.

Regarding KSHV protease (from UniProt Q2HRB6), the Kd in data set [1] is 1700 nM.

B1: HCMV protease (HCMV Pr) (protein)
chain: MTMDEQQSQAVAPVYVGGFLARYDQSPDEAELLLPRDVVEHWLHAQGQGQPSLSVALPLNINHDDTAVVGHVAAMQSVRDGLFCLGCVTSPRFLEIVRRASEKSELVSRGPVSPLQPDKVVEFLSGSYAGLSLSSRRCDDVEAATSLSGSETTPFKHVALCSVGRRRGTLAVYGRDPEWVTQRFPDLTAADRDGLRAQWQRCGSTAVDASGDPFRSDSYGLLGNSVDALYIRERLPKLRYDKQLVGVTERESYVKA
For the molecule B1, the Kd in data set [2] came out at 1300 nM.

One may read the Kd as a measure of binding affinity in units of concentration.
